Positions count from the first letter of the chain named.
B1: Trastuzumab HCDR3 variant ARWPGYGSYYMDV (Fab, V domains shown)
VH: EVQLVESGGGLVQPGGSLRLSCAASGFNIKDTYIHWVRQAPGKGLEWVARIYPTNGYTRYADSVKGRFTISADTSKNTAYLQMNSLRAEDTAVYYCARWPGYGSYYMDVWGQGTLVTVSS
VL: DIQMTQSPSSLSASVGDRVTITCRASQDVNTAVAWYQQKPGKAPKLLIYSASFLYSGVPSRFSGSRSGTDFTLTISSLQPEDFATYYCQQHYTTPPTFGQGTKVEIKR
B2: Trastuzumab HCDR3 variant ARYRGVWYYDFDN (Fab, V domains shown)
VH: B1 VH with W99Y, P100R, Y102V, G103W, S104Y, Y106D, M107F, V109N
VL: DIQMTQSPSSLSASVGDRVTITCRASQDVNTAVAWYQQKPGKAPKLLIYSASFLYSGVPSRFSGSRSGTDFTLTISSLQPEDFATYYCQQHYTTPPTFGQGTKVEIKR
B3: Trastuzumab HCDR3 variant ARYYGYGYYYFHY (Fab, V domains shown)
VH: B1 VH with W99Y, P100Y, S104Y, M107F, D108H, V109Y
VL: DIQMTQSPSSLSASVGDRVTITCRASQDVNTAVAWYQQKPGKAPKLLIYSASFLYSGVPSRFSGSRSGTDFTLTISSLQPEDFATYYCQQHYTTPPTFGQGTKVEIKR
B4: Trastuzumab HCDR3 variant ARWYYGYYYYFDV (Fab, V domains shown)
VH: B1 VH with P100Y, G101Y, Y102G, G103Y, S104Y, M107F
VL: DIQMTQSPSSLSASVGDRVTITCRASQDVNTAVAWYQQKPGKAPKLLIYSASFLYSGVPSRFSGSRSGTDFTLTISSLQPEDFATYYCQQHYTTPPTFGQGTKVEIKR
B5: Trastuzumab HCDR3 variant ARYYGYGGYWYDT (Fab, V domains shown)
VH: B1 VH with W99Y, P100Y, S104G, Y106W, M107Y, V109T
VL: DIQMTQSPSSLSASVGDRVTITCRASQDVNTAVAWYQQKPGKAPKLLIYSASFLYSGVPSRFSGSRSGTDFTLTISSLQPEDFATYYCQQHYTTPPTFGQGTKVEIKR
B6: Trastuzumab HCDR3 variant ARWRGDGGYYFDY (Fab, V domains shown)
VH: B1 VH with P100R, Y102D, S104G, M107F, V109Y
VL: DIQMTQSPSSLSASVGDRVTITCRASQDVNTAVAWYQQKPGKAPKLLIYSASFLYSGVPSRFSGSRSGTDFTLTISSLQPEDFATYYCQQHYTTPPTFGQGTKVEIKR
B7: Trastuzumab HCDR3 variant ARYGSSYYYYFDY (Fab, V domains shown)
VH: B1 VH with W99Y, P100G, G101S, Y102S, G103Y, S104Y, M107F, V109Y
VL: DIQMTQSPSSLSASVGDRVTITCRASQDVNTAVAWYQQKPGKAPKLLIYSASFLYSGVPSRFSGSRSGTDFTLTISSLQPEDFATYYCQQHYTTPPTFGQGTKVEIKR
B8: Trastuzumab HCDR3 variant ARYSAYGLYDFAY (Fab, V domains shown)
VH: B1 VH with W99Y, P100S, G101A, S104L, Y106D, M107F, D108A, V109Y
VL: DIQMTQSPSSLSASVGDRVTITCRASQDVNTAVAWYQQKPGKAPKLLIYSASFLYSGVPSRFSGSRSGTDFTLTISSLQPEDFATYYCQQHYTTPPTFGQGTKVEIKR
B9: Trastuzumab HCDR3 variant TRWLEGLSYFMDY (Fab, V domains shown)
VH: B1 VH with A97T, P100L, G101E, Y102G, G103L, Y106F, V109Y
VL: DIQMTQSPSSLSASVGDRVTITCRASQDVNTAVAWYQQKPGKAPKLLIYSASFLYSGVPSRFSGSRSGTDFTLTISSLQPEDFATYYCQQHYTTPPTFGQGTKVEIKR
B10: Trastuzumab HCDR3 variant ARYTYFGSFDFDY (Fab, V domains shown)
VH: B1 VH with W99Y, P100T, G101Y, Y102F, Y105F, Y106D, M107F, V109Y
VL: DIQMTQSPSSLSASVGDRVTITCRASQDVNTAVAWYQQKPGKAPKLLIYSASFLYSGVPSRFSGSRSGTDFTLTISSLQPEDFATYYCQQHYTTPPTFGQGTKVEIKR
B11: Trastuzumab HCDR3 variant ARWYYYGGYYFDV (Fab, V domains shown)
VH: B1 VH with P100Y, G101Y, S104G, M107F
VL: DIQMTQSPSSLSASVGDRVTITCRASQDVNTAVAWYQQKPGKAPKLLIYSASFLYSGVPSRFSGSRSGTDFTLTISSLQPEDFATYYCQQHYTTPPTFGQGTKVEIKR
B12: Trastuzumab HCDR3 variant TRYASGYFYAFDY (Fab, V domains shown)
VH: B1 VH with A97T, W99Y, P100A, G101S, Y102G, G103Y, S104F, Y106A, M107F, V109Y
VL: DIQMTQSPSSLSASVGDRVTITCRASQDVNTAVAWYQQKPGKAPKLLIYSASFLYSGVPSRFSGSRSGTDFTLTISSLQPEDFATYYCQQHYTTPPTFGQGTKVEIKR
B13: Trastuzumab HCDR3 variant ARYWYGGYYYFDY (Fab, V domains shown)
VH: B1 VH with W99Y, P100W, G101Y, Y102G, S104Y, M107F, V109Y
VL: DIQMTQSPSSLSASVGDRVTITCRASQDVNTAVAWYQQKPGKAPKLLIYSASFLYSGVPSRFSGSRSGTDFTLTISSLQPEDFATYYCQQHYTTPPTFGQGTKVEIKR
B14: Trastuzumab HCDR3 variant TRYFFNGWYYFDV (Fab, V domains shown)
VH: B1 VH with A97T, W99Y, P100F, G101F, Y102N, S104W, M107F
VL: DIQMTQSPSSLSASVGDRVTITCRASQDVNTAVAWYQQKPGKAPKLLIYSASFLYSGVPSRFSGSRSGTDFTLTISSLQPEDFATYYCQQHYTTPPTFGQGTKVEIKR
B15: Trastuzumab HCDR3 variant SRYYAGGWYYFDY (Fab, V domains shown)
VH: B1 VH with A97S, W99Y, P100Y, G101A, Y102G, S104W, M107F, V109Y
VL: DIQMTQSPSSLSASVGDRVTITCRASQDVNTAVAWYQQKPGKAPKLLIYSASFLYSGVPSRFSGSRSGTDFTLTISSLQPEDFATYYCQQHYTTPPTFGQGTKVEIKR
B16: Trastuzumab HCDR3 variant ARWYGGGYYYMDY (Fab, V domains shown)
VH: B1 VH with P100Y, Y102G, S104Y, V109Y
VL: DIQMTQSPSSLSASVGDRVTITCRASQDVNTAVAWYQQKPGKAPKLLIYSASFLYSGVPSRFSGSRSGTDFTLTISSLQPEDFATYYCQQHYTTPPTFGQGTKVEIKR
B17: Trastuzumab HCDR3 variant ARYVGLGGYPLGY (Fab, V domains shown)
VH: B1 VH with W99Y, P100V, Y102L, S104G, Y106P, M107L, D108G, V109Y
VL: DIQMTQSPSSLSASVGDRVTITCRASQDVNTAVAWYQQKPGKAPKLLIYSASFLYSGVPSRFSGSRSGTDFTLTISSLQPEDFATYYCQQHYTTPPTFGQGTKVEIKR
B18: Trastuzumab HCDR3 variant ARWYYYGRYYFDY (Fab, V domains shown)
VH: B1 VH with P100Y, G101Y, S104R, M107F, V109Y
VL: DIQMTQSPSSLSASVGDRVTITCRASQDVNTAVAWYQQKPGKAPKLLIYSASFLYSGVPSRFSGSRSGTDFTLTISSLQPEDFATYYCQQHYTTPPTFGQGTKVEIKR
B19: Trastuzumab HCDR3 variant ARWWGGGAYYFDY (Fab, V domains shown)
VH: B1 VH with P100W, Y102G, S104A, M107F, V109Y
VL: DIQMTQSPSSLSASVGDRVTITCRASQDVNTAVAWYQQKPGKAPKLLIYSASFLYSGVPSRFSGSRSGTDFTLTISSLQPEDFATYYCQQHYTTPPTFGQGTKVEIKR
B20: Trastuzumab HCDR3 variant ARWYGYGGYYFDY (Fab, V domains shown)
VH: B1 VH with P100Y, S104G, M107F, V109Y
VL: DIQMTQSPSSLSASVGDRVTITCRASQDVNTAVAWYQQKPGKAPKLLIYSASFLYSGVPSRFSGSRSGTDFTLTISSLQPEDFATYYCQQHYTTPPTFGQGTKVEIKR
B21: Trastuzumab HCDR3 variant ARYYGYGGYYMDY (Fab, V domains shown)
VH: B1 VH with W99Y, P100Y, S104G, V109Y
VL: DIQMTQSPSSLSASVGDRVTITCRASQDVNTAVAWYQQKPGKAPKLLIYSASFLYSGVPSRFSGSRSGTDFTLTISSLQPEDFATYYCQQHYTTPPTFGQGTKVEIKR
B22: Trastuzumab HCDR3 variant ATYSTYYNYAFGI (Fab, V domains shown)
VH: B1 VH with R98T, W99Y, P100S, G101T, G103Y, S104N, Y106A, M107F, D108G, V109I
VL: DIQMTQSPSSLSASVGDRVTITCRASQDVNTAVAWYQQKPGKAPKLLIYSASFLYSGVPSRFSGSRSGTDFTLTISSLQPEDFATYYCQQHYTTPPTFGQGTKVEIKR
B23: Trastuzumab HCDR3 variant ARYYSYGQYAFDP (Fab, V domains shown)
VH: B1 VH with W99Y, P100Y, G101S, S104Q, Y106A, M107F, V109P
VL: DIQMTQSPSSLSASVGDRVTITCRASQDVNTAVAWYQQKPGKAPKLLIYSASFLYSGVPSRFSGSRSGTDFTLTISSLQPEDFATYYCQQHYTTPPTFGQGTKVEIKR
B24: Trastuzumab HCDR3 variant ARWYYYGGYYFDY (Fab, V domains shown)
VH: B1 VH with P100Y, G101Y, S104G, M107F, V109Y
VL: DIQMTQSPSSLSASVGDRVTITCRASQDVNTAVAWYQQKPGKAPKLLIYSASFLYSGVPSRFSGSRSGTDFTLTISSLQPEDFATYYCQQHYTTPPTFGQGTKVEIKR
B25: Trastuzumab HCDR3 variant ARYDPYGFYHLDY (Fab, V domains shown)
VH: B1 VH with W99Y, P100D, G101P, S104F, Y106H, M107L, V109Y
VL: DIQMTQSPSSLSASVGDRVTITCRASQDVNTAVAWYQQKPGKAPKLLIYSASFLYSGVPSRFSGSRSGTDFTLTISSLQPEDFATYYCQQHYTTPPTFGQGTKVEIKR
B26: Trastuzumab HCDR3 variant ARYFYDYYYYFDF (Fab, V domains shown)
VH: B1 VH with W99Y, P100F, G101Y, Y102D, G103Y, S104Y, M107F, V109F
VL: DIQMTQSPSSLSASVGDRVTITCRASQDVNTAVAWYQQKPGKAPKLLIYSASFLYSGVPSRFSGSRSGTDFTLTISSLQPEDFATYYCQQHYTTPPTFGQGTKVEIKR
B27: Trastuzumab HCDR3 variant ARYYYDYYYYFDY (Fab, V domains shown)
VH: B1 VH with W99Y, P100Y, G101Y, Y102D, G103Y, S104Y, M107F, V109Y
VL: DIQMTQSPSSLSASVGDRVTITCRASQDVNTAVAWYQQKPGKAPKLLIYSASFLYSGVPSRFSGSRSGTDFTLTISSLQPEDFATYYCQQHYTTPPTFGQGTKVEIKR
B28: Trastuzumab HCDR3 variant ARYWGLGGYYFDH (Fab, V domains shown)
VH: B1 VH with W99Y, P100W, Y102L, S104G, M107F, V109H
VL: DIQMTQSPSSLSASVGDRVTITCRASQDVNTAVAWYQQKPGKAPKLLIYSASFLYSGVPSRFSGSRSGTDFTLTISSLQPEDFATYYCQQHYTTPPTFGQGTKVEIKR
B29: Trastuzumab HCDR3 variant ARYGGGGRYYFDY (Fab, V domains shown)
VH: B1 VH with W99Y, P100G, Y102G, S104R, M107F, V109Y
VL: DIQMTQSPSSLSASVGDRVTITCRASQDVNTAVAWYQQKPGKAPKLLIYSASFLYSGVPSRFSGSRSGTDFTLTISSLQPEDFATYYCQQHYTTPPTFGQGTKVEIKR
B30: Trastuzumab HCDR3 variant ASYGLDGYYYFDV (Fab, V domains shown)
VH: B1 VH with R98S, W99Y, P100G, G101L, Y102D, S104Y, M107F
VL: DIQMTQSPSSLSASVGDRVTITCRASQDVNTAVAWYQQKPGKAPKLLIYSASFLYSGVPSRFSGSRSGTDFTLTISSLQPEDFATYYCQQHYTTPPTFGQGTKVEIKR
B31: Trastuzumab HCDR3 variant TRYEYQDYYHFDY (Fab, V domains shown)
VH: B1 VH with A97T, W99Y, P100E, G101Y, Y102Q, G103D, S104Y, Y106H, M107F, V109Y
VL: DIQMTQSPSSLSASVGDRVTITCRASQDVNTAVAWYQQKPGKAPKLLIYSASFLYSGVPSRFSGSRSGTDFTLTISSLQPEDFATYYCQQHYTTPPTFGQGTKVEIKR
B32: Trastuzumab HCDR3 variant ARYRGYVLYDFAY (Fab, V domains shown)
VH: B1 VH with W99Y, P100R, G103V, S104L, Y106D, M107F, D108A, V109Y
VL: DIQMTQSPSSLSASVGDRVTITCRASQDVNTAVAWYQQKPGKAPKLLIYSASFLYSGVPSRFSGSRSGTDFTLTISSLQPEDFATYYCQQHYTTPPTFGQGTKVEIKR
B33: Trastuzumab HCDR3 variant ARYGSRYYYYFDY (Fab, V domains shown)
VH: B1 VH with W99Y, P100G, G101S, Y102R, G103Y, S104Y, M107F, V109Y
VL: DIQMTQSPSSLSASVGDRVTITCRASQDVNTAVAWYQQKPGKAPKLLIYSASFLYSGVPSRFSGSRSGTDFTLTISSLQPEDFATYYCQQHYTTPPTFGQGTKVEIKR
B34: Trastuzumab HCDR3 variant ARYAHYGPYYFDF (Fab, V domains shown)
VH: B1 VH with W99Y, P100A, G101H, S104P, M107F, V109F
VL: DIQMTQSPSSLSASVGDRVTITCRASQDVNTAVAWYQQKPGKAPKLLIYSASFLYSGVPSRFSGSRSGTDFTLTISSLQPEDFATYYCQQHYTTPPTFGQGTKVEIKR
B35: Trastuzumab HCDR3 variant ARYGVYPFYYFDY (Fab, V domains shown)
VH: B1 VH with W99Y, P100G, G101V, G103P, S104F, M107F, V109Y
VL: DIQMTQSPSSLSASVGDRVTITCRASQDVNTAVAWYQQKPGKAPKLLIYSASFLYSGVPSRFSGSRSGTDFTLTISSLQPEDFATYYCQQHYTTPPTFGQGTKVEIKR
B36: Trastuzumab HCDR3 variant ARYGYYGPYYFDY (Fab, V domains shown)
VH: B1 VH with W99Y, P100G, G101Y, S104P, M107F, V109Y
VL: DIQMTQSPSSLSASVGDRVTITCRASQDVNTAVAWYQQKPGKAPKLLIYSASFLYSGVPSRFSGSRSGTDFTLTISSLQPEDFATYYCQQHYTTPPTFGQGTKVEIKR
B37: Trastuzumab HCDR3 variant ARWTERGFYSFDI (Fab, V domains shown)
VH: B1 VH with P100T, G101E, Y102R, S104F, Y106S, M107F, V109I
VL: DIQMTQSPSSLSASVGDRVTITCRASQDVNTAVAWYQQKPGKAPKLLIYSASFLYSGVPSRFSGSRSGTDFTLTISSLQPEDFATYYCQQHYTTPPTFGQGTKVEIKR
B38: Trastuzumab HCDR3 variant ARYSGYGLYPYAY (Fab, V domains shown)
VH: B1 VH with W99Y, P100S, S104L, Y106P, M107Y, D108A, V109Y
VL: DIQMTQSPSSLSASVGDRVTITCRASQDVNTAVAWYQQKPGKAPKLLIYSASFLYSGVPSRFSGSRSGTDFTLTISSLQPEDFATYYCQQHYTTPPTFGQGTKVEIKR
B39: Trastuzumab HCDR3 variant ARYEAYGLYPFGY (Fab, V domains shown)
VH: B1 VH with W99Y, P100E, G101A, S104L, Y106P, M107F, D108G, V109Y
VL: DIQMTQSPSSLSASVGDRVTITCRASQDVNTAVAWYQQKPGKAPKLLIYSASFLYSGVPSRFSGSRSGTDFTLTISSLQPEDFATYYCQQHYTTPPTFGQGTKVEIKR
B40: Trastuzumab HCDR3 variant ARYGDGYYYYFAY (Fab, V domains shown)
VH: B1 VH with W99Y, P100G, G101D, Y102G, G103Y, S104Y, M107F, D108A, V109Y
VL: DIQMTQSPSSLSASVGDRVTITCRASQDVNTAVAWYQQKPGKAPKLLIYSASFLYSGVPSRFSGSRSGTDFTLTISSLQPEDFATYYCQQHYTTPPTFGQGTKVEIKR
B41: Trastuzumab HCDR3 variant ARYGSGYYYYFDY (Fab, V domains shown)
VH: B1 VH with W99Y, P100G, G101S, Y102G, G103Y, S104Y, M107F, V109Y
VL: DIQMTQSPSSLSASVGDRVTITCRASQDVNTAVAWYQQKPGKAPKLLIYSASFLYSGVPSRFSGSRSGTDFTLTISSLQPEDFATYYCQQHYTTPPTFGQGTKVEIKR
B42: Trastuzumab HCDR3 variant AVTDLDGLHSYRY (Fab, V domains shown)
VH: EVQLVESGGGLVQPGGSLRLSCAASGFNIKDTYIHWVRQAPGKGLEWVARIYPTNGYTRYADSVKGRFTISADTSKNTAYLQMNSLRAEDTAVYYCAVTDLDGLHSYRYWGQGTLVTVSS
VL: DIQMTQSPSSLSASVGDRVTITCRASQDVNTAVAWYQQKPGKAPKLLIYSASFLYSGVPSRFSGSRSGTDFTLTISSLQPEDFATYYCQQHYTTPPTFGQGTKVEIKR
B43: Trastuzumab HCDR3 variant ARYYGYGGYYFDY (Fab, V domains shown)
VH: B1 VH with W99Y, P100Y, S104G, M107F, V109Y
VL: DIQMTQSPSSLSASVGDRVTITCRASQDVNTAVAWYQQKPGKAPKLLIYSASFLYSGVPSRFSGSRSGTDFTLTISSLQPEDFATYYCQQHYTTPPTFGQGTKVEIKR
B44: Trastuzumab HCDR3 variant TRYGGYGYYYMDY (Fab, V domains shown)
VH: B1 VH with A97T, W99Y, P100G, S104Y, V109Y
VL: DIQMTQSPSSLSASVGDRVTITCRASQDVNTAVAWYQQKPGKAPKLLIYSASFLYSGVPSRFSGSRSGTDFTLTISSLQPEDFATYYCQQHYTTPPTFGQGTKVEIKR
B45: Trastuzumab HCDR3 variant TRNYYDYYYYFDY (Fab, V domains shown)
VH: B1 VH with A97T, W99N, P100Y, G101Y, Y102D, G103Y, S104Y, M107F, V109Y
VL: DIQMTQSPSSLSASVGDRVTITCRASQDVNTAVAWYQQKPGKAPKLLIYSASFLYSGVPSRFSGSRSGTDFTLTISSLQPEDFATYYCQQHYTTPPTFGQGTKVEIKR
B46: Trastuzumab HCDR3 variant ARYLQLGPYYFDY (Fab, V domains shown)
VH: B1 VH with W99Y, P100L, G101Q, Y102L, S104P, M107F, V109Y
VL: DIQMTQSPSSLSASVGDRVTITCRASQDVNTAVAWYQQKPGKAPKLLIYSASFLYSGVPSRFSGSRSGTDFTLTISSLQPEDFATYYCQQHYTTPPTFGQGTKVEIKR

Biological target: T1, HER2 (human epidermal growth factor receptor 2) (human, UniProt P04626 23-629)
T1 construct: also called Antigen: HER2
Assay: SPR

| Binder | Kd | log(KD (M)) |
| --- | --- | --- |
| B1 | 0.00483 µM | -8.32 |
| B2 | 0.0145 µM | -7.84 |
| B3 | 0.0202 µM | -7.7 |
| B4 | 0.00704 µM | -8.15 |
| B5 | 0.00819 µM | -8.09 |
| B6 | 0.0131 µM | -7.88 |
| B7 | 0.0139 µM | -7.86 |
| B8 | 0.0255 µM | -7.59 |
| B9 | 0.0024 µM | -8.62 |
| B10 | 0.0158 µM | -7.8 |
| B11 | 0.0125 µM | -7.9 |
| B12 | 0.00914 µM | -8.04 |
| B13 | 0.0197 µM | -7.71 |
| B14 | 0.00094 µM | -9.03 |
| B15 | 0.0118 µM | -7.93 |
| B16 | 0.0118 µM | -7.93 |
| B17 | 0.0132 µM | -7.88 |
| B18 | 0.011 µM | -7.96 |
| B19 | 0.0149 µM | -7.83 |
| B20 | 0.00743 µM | -8.13 |
| B21 | 0.00991 µM | -8 |
| B22 | 0.0226 µM | -7.65 |
| B23 | 0.0194 µM | -7.71 |

| Binder | Kd | log(KD (M)) |
| --- | --- | --- |
| B24 | 0.00829 µM | -8.08 |
| B25 | 0.0242 µM | -7.62 |
| B26 | 0.00711 µM | -8.15 |
| B27 | 0.00844 µM | -8.07 |
| B28 | 0.0165 µM | -7.78 |
| B29 | 0.0196 µM | -7.71 |
| B30 | 0.0193 µM | -7.71 |
| B31 | 0.0185 µM | -7.73 |
| B32 | 0.0231 µM | -7.64 |
| B33 | 0.0157 µM | -7.8 |
| B34 | 0.0198 µM | -7.7 |
| B35 | 0.027 µM | -7.57 |
| B36 | 0.0143 µM | -7.84 |
| B37 | 0.00928 µM | -8.03 |
| B38 | 0.0174 µM | -7.76 |
| B39 | 0.00339 µM | -8.47 |
| B40 | 0.00731 µM | -8.14 |
| B41 | 0.0157 µM | -7.8 |
| B42 | 0.0233 µM | -7.63 |
| B43 | 0.00805 µM | -8.09 |
| B44 | 0.012 µM | -7.92 |
| B45 | 0.00754 µM | -8.12 |
| B46 | 0.0147 µM | -7.83 |

— patent US20250218531A1 (ABSCI, published 2025)
